T1: recombinant Flag-RecQL4 (human, UniProt O94761 1-1208)
T1 construct: also called purified Flag-RecQL4; source: E. coli (BL21 in the results; Rosetta (DE3) in the methods), IPTG-induced, purified
T1 sequence (looked up): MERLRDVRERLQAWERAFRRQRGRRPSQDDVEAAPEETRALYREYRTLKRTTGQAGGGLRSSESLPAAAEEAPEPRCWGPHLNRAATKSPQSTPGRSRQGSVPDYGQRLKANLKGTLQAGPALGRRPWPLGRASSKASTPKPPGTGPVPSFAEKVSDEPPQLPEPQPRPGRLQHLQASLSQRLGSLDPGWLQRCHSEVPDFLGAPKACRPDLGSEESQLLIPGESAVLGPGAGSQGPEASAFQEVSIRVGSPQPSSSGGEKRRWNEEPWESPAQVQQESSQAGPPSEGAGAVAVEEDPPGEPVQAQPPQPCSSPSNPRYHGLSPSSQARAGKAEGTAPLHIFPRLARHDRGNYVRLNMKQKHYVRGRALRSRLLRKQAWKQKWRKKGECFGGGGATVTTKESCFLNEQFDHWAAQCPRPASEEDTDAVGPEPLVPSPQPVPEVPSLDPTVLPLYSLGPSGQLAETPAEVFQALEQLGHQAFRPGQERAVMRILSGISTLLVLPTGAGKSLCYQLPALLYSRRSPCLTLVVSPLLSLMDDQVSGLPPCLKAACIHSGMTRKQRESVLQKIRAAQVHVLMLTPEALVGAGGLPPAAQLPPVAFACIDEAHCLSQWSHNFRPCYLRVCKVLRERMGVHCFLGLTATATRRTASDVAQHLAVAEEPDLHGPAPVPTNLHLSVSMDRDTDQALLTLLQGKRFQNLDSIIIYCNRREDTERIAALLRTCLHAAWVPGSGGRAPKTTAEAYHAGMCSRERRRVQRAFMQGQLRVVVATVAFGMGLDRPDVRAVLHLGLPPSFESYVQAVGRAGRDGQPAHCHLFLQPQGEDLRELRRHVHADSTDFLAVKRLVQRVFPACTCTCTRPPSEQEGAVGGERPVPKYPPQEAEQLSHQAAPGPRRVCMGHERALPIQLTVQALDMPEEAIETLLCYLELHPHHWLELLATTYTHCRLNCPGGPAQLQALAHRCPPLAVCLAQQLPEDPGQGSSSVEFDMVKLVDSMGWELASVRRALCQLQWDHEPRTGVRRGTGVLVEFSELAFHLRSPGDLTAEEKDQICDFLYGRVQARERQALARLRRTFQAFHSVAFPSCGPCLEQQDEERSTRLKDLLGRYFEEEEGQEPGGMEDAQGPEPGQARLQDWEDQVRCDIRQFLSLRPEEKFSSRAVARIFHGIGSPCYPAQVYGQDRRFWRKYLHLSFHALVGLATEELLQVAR

B1: GST-RNF8 (natural protein, UniProt O76064-1 1-485, looked up)
chain: MGEPGFFVTGDRAGGRSWCLRRVGMSAGWLLLEDGCEVTVGRGFGVTYQLVSKICPLMISRNHCVLKQNPEGQWTIMDNKSLNGVWLNRARLEPLRVYSIHQGDYIQLGVPLENKENAEYEYEVTEEDWETIYPCLSPKNDQMIEKNKELRTKRKFSLDELAGPGAEGPSNLKSKINKVSCESGQPVKSQGKGEVASTPSDNLDPKLTALEPSKTTGAPIYPGFPKVTEVHHEQKASNSSASQRSLQMFKVTMSRILRLKIQMQEKHEAVMNVKKQTQKGNSKKVVQMEQELQDLQSQLCAEQAQQQARVEQLEKTFQEEEQHLQGLEIAQGEKDLKQQLAQALQEHWALMEELNRSKKDFEAIIQAKNKELEQTKEEKEKMQAQKEEVLSHMNDVLENELQCIICSEYFIEAVTLNCAHSFCSYCINEWMKRKIECPICRKDIKSKTYSLVLDNCINKMVNNLSSEVKERRIVLIRERKAKRLF
notes: RNF8; also called purified recombinant GST-RNF8; source: E. coli BL21, purified (GST beads)
B2: GST-WRAP53β (natural protein)
chain: not shown
notes: WRAP53β; also called purified recombinant GST-WRAP53β; source: E. coli, purified (GST beads)

How the values were obtained:
recombinant Flag-RecQL4 [1] = biological target: T1, recombinant Flag-RecQL4; assay: pull-down; Flag-RecQL4 immobilised on M2 beads at 4 °C overnight, GST fusion proteins added at 4 °C for 4 h; GST-RNF8 with increasing input of GST-WRAP53β; western blot; conditions: both partners purified
recombinant Flag-RecQL4 [2] = biological target: T1, recombinant Flag-RecQL4; assay: pull-down; GST fusion protein immobilised on glutathione Sepharose 4B at 4 °C overnight, incubated with purified Flag-RecQL4 at 4 °C for 4 h; western blot; conditions: both partners purified

| Binder | binding result (recombinant Flag-RecQL4 [1]) | binding result (recombinant Flag-RecQL4 [2]) |
| --- | --- | --- |
| B1 | binds | – |
| B2 | – | binds |
